The values below are quoted from earlier work in patent US20180161372A1, “COMPOSITION FOR TREATING BRAIN LESIONS” (ORGANES TISSUS REGENERATION REPARATION REMPLACEMENT - OTR3, priority 2015, published 2018).

The test system of the series is patients. Conditions: strictly selected stroke patients.

As for “rt-PA: t-PA (tissue plasminogen activator), thrombolysis approved for ischemic stroke”, the “patients developing a cerebral hemorrhage following administration” value is reported as 13%.
